Data taken from the RNAGym collection of RNA variant scans (doi:10.1021/acssynbio.7b00057).

B1: Pistol ribozyme (parent)
chain: GGGUCGUUGUUCCAUAAUCGCGUGGAUAUGGCACGCAAGUUUCUACCGGGCACCGUAAAUGUCCGACUGGAGCCGUUCGGGCGGCUAUAAACAGACCUCAGGCCCGAAGCGUGGCGGCACCUGCCGCCGGUGGUAAAAAAGAUCGGAAGAGCACACGUCU

Variants of: B1
Test: aptazyme ON/OFF ratio, guanine; higher = stronger switching; co-transcriptional cleavage with and without guanine

Variant	aptazyme ON/OFF ratio
GGGUCGCCUUCGUAUAAUCGCGUGGAUAUGGCACGCAAGUUUCUACCGGGCACCGUAAAUGUCCGACUGGAGCCGUUCGGGCGGCUAUAAACAGACCUCAGGCCCGAAGCGUGGCGGCACCUGCCGCCGGUGGUAAAAAAGAUCGGAAGAGCACACGUCU	1.08
GGGUCGCCUUCGGAUAAUCGCGUGGAUAUGGCACGCAAGUUUCUACCGGGCACCGUAAAUGUCCGACUGGAGCCGUUCGGGCGGCUAUAAACAGACCUCAGGCCCGAAGCGUGGCGGCACCUGCCGCCGGUGGUAAAAAAGAUCGGAAGAGCACACGUCU	1.12
GGGUCGCCUUCGAAUAAUCGCGUGGAUAUGGCACGCAAGUUUCUACCGGGCACCGUAAAUGUCCGACUGGAGCCGUUCGGGCGGCUAUAAACAGACCUCAGGCCCGAAGCGUGGCGGCACCUGCCGCCGGUGGUAAAAAAGAUCGGAAGAGCACACGUCU	1.12
GGGUCGCCUUCCAAUAAUCGCGUGGAUAUGGCACGCAAGUUUCUACCGGGCACCGUAAAUGUCCGACUGGAGCCGUUCGGGCGGCUAUAAACAGACCUCAGGCCCGAAGCGUGGCGGCACCUGCCGCCGGUGGUAAAAAAGAUCGGAAGAGCACACGUCU	1.02
GGGUCGCCUUACAAUAAUCGCGUGGAUAUGGCACGCAAGUUUCUACCGGGCACCGUAAAUGUCCGACUGGAGCCGUUCGGGCGGCUAUAAACAGACCUCAGGCCCGAAGCGUGGCGGCACCUGCCGCCGGUGGUAAAAAAGAUCGGAAGAGCACACGUCU	1.17
GGGUCGCCUUACGAUAAUCGCGUGGAUAUGGCACGCAAGUUUCUACCGGGCACCGUAAAUGUCCGACUGGAGCCGUUCGGGCGGCUAUAAACAGACCUCAGGCCCGAAGCGUGGCGGCACCUGCCGCCGGUGGUAAAAAAGAUCGGAAGAGCACACGUCU	1.07
GGGUCGCCUUACUAUAAUCGCGUGGAUAUGGCACGCAAGUUUCUACCGGGCACCGUAAAUGUCCGACUGGAGCCGUUCGGGCGGCUAUAAACAGACCUCAGGCCCGAAGCGUGGCGGCACCUGCCGCCGGUGGUAAAAAAGAUCGGAAGAGCACACGUCU	1.15
GGGUCGCCUUAAAAUAAUCGCGUGGAUAUGGCACGCAAGUUUCUACCGGGCACCGUAAAUGUCCGACUGGAGCCGUUCGGGCGGCUAUAAACAGACCUCAGGCCCGAAGCGUGGCGGCACCUGCCGCCGGUGGUAAAAAAGAUCGGAAGAGCACACGUCU	1.17
GGGUCGCCUUAAGAUAAUCGCGUGGAUAUGGCACGCAAGUUUCUACCGGGCACCGUAAAUGUCCGACUGGAGCCGUUCGGGCGGCUAUAAACAGACCUCAGGCCCGAAGCGUGGCGGCACCUGCCGCCGGUGGUAAAAAAGAUCGGAAGAGCACACGUCU	1.1
GGGUCGCCUUAAUAUAAUCGCGUGGAUAUGGCACGCAAGUUUCUACCGGGCACCGUAAAUGUCCGACUGGAGCCGUUCGGGCGGCUAUAAACAGACCUCAGGCCCGAAGCGUGGCGGCACCUGCCGCCGGUGGUAAAAAAGAUCGGAAGAGCACACGUCU	1.28
GGGUCGCCUUACCAUAAUCGCGUGGAUAUGGCACGCAAGUUUCUACCGGGCACCGUAAAUGUCCGACUGGAGCCGUUCGGGCGGCUAUAAACAGACCUCAGGCCCGAAGCGUGGCGGCACCUGCCGCCGGUGGUAAAAAAGAUCGGAAGAGCACACGUCU	1.64
GGGUCGCCUUCCCAUAAUCGCGUGGAUAUGGCACGCAAGUUUCUACCGGGCACCGUAAAUGUCCGACUGGAGCCGUUCGGGCGGCUAUAAACAGACCUCAGGCCCGAAGCGUGGCGGCACCUGCCGCCGGUGGUAAAAAAGAUCGGAAGAGCACACGUCU	1.1
GGGUCGCCUUAUAAUAAUCGCGUGGAUAUGGCACGCAAGUUUCUACCGGGCACCGUAAAUGUCCGACUGGAGCCGUUCGGGCGGCUAUAAACAGACCUCAGGCCCGAAGCGUGGCGGCACCUGCCGCCGGUGGUAAAAAAGAUCGGAAGAGCACACGUCU	1.18
GGGUCGCCUUAUGAUAAUCGCGUGGAUAUGGCACGCAAGUUUCUACCGGGCACCGUAAAUGUCCGACUGGAGCCGUUCGGGCGGCUAUAAACAGACCUCAGGCCCGAAGCGUGGCGGCACCUGCCGCCGGUGGUAAAAAAGAUCGGAAGAGCACACGUCU	1.12
GGGUCGCCUUAUUAUAAUCGCGUGGAUAUGGCACGCAAGUUUCUACCGGGCACCGUAAAUGUCCGACUGGAGCCGUUCGGGCGGCUAUAAACAGACCUCAGGCCCGAAGCGUGGCGGCACCUGCCGCCGGUGGUAAAAAAGAUCGGAAGAGCACACGUCU	1.2
GGGUCGCCUUCUUAUAAUCGCGUGGAUAUGGCACGCAAGUUUCUACCGGGCACCGUAAAUGUCCGACUGGAGCCGUUCGGGCGGCUAUAAACAGACCUCAGGCCCGAAGCGUGGCGGCACCUGCCGCCGGUGGUAAAAAAGAUCGGAAGAGCACACGUCU	1.02
GGGUCGCCUUCUGAUAAUCGCGUGGAUAUGGCACGCAAGUUUCUACCGGGCACCGUAAAUGUCCGACUGGAGCCGUUCGGGCGGCUAUAAACAGACCUCAGGCCCGAAGCGUGGCGGCACCUGCCGCCGGUGGUAAAAAAGAUCGGAAGAGCACACGUCU	1.05
GGGUCGCCUUCUAAUAAUCGCGUGGAUAUGGCACGCAAGUUUCUACCGGGCACCGUAAAUGUCCGACUGGAGCCGUUCGGGCGGCUAUAAACAGACCUCAGGCCCGAAGCGUGGCGGCACCUGCCGCCGGUGGUAAAAAAGAUCGGAAGAGCACACGUCU	1.03

Variant	aptazyme ON/OFF ratio
GGGUCGCCUGGCAAUAAUCGCGUGGAUAUGGCACGCAAGUUUCUACCGGGCACCGUAAAUGUCCGACUGGAGCCGUUCGGGCGGCUAUAAACAGACCUCAGGCCCGAAGCGUGGCGGCACCUGCCGCCGGUGGUAAAAAAGAUCGGAAGAGCACACGUCU	1.1
GGGUCGCCUGGCUAUAAUCGCGUGGAUAUGGCACGCAAGUUUCUACCGGGCACCGUAAAUGUCCGACUGGAGCCGUUCGGGCGGCUAUAAACAGACCUCAGGCCCGAAGCGUGGCGGCACCUGCCGCCGGUGGUAAAAAAGAUCGGAAGAGCACACGUCU	1.08
GGGUCGCCUGGCGAUAAUCGCGUGGAUAUGGCACGCAAGUUUCUACCGGGCACCGUAAAUGUCCGACUGGAGCCGUUCGGGCGGCUAUAAACAGACCUCAGGCCCGAAGCGUGGCGGCACCUGCCGCCGGUGGUAAAAAAGAUCGGAAGAGCACACGUCU	1.13
GGGUCGCCUGGUUAUAAUCGCGUGGAUAUGGCACGCAAGUUUCUACCGGGCACCGUAAAUGUCCGACUGGAGCCGUUCGGGCGGCUAUAAACAGACCUCAGGCCCGAAGCGUGGCGGCACCUGCCGCCGGUGGUAAAAAAGAUCGGAAGAGCACACGUCU	1.08
GGGUCGCCUGGUGAUAAUCGCGUGGAUAUGGCACGCAAGUUUCUACCGGGCACCGUAAAUGUCCGACUGGAGCCGUUCGGGCGGCUAUAAACAGACCUCAGGCCCGAAGCGUGGCGGCACCUGCCGCCGGUGGUAAAAAAGAUCGGAAGAGCACACGUCU	1.09
GGGUCGCCUGGUAAUAAUCGCGUGGAUAUGGCACGCAAGUUUCUACCGGGCACCGUAAAUGUCCGACUGGAGCCGUUCGGGCGGCUAUAAACAGACCUCAGGCCCGAAGCGUGGCGGCACCUGCCGCCGGUGGUAAAAAAGAUCGGAAGAGCACACGUCU	1.08
GGGUCGCCUUCAGAUAAUCGCGUGGAUAUGGCACGCAAGUUUCUACCGGGCACCGUAAAUGUCCGACUGGAGCCGUUCGGGCGGCUAUAAACAGACCUCAGGCCCGAAGCGUGGCGGCACCUGCCGCCGGUGGUAAAAAAGAUCGGAAGAGCACACGUCU	1.04
GGGUCGCCUUCAUAUAAUCGCGUGGAUAUGGCACGCAAGUUUCUACCGGGCACCGUAAAUGUCCGACUGGAGCCGUUCGGGCGGCUAUAAACAGACCUCAGGCCCGAAGCGUGGCGGCACCUGCCGCCGGUGGUAAAAAAGAUCGGAAGAGCACACGUCU	1.14
GGGUCGCCUUCAAAUAAUCGCGUGGAUAUGGCACGCAAGUUUCUACCGGGCACCGUAAAUGUCCGACUGGAGCCGUUCGGGCGGCUAUAAACAGACCUCAGGCCCGAAGCGUGGCGGCACCUGCCGCCGGUGGUAAAAAAGAUCGGAAGAGCACACGUCU	1.06
GGGUCGCCUUAUCAUAAUCGCGUGGAUAUGGCACGCAAGUUUCUACCGGGCACCGUAAAUGUCCGACUGGAGCCGUUCGGGCGGCUAUAAACAGACCUCAGGCCCGAAGCGUGGCGGCACCUGCCGCCGGUGGUAAAAAAGAUCGGAAGAGCACACGUCU	1.25
GGGUCGCCUUAACAUAAUCGCGUGGAUAUGGCACGCAAGUUUCUACCGGGCACCGUAAAUGUCCGACUGGAGCCGUUCGGGCGGCUAUAAACAGACCUCAGGCCCGAAGCGUGGCGGCACCUGCCGCCGGUGGUAAAAAAGAUCGGAAGAGCACACGUCU	1.21
GGGUCGCCUUAGCAUAAUCGCGUGGAUAUGGCACGCAAGUUUCUACCGGGCACCGUAAAUGUCCGACUGGAGCCGUUCGGGCGGCUAUAAACAGACCUCAGGCCCGAAGCGUGGCGGCACCUGCCGCCGGUGGUAAAAAAGAUCGGAAGAGCACACGUCU	1.18
GGGUCGCCUUAGAAUAAUCGCGUGGAUAUGGCACGCAAGUUUCUACCGGGCACCGUAAAUGUCCGACUGGAGCCGUUCGGGCGGCUAUAAACAGACCUCAGGCCCGAAGCGUGGCGGCACCUGCCGCCGGUGGUAAAAAAGAUCGGAAGAGCACACGUCU	1.07
GGGUCGCCUUAGGAUAAUCGCGUGGAUAUGGCACGCAAGUUUCUACCGGGCACCGUAAAUGUCCGACUGGAGCCGUUCGGGCGGCUAUAAACAGACCUCAGGCCCGAAGCGUGGCGGCACCUGCCGCCGGUGGUAAAAAAGAUCGGAAGAGCACACGUCU	1.16
GGGUCGCCUUAGUAUAAUCGCGUGGAUAUGGCACGCAAGUUUCUACCGGGCACCGUAAAUGUCCGACUGGAGCCGUUCGGGCGGCUAUAAACAGACCUCAGGCCCGAAGCGUGGCGGCACCUGCCGCCGGUGGUAAAAAAGAUCGGAAGAGCACACGUCU	1.13
GGGUCGCCUUCACAUAAUCGCGUGGAUAUGGCACGCAAGUUUCUACCGGGCACCGUAAAUGUCCGACUGGAGCCGUUCGGGCGGCUAUAAACAGACCUCAGGCCCGAAGCGUGGCGGCACCUGCCGCCGGUGGUAAAAAAGAUCGGAAGAGCACACGUCU	1.17
GGGUCGCCUUCUCAUAAUCGCGUGGAUAUGGCACGCAAGUUUCUACCGGGCACCGUAAAUGUCCGACUGGAGCCGUUCGGGCGGCUAUAAACAGACCUCAGGCCCGAAGCGUGGCGGCACCUGCCGCCGGUGGUAAAAAAGAUCGGAAGAGCACACGUCU	1.04
GGGUCGCCUUCGCAUAAUCGCGUGGAUAUGGCACGCAAGUUUCUACCGGGCACCGUAAAUGUCCGACUGGAGCCGUUCGGGCGGCUAUAAACAGACCUCAGGCCCGAAGCGUGGCGGCACCUGCCGCCGGUGGUAAAAAAGAUCGGAAGAGCACACGUCU	1.22
